According to US20190060430A1 (published 2019):
Numbering of substitutions follows the chain as printed.

T1: PLAC1 peptide on HLA-A*02:01 (human)
T1 peptide: CSIDWFMVTVHP

T2: TPTE peptide on HLA-DRB1*15:01 (human)
T2 peptide: DVVYIFFDIKLLRNI

T3: PLAC1 peptide on HLA-A*02:01 (human)
T3 peptide: VLCSIDWFM

T4: PLAC1 peptide on HLA-A*02:01 (human)
T4 peptide: SIDWFMVTV

T5: NY-ESO-1 peptide on HLA-B*35:08 (human)
T5 peptide: LAMPFATPM

B1: TCRCD8-mPL#2 (TCR, V domains shown)
Valpha: GDSVTQTEGQVTVSESKSLIINCTYSATSIGYPNLFWYVRYPGEGLQLLLKVITAGQKGSSRGFEATYNKEATSFHLQKASVQESDSAVYYCALSDSNYQLIWGSGTKLIIKP
Vbeta: DPKIIQKPKYLVAVTGSEKILICEQYLGHNAMYWYRQSAKKPLEFMFSYSYQKLMDNQTASSRFQPQSSKKNHLDLQITALKPDDSATYFCASSPDNSGNTLYFGEGSRLIVV
B2: TCRCD8-mPL#8 (TCR, V domains shown)
Valpha: TQTVSQSDAHVTVFEGDSVELRCNYSYGGSIYLSWYIQHHGRGLQFLLKYYSGNPVVQGVNGFKAEFSKSDSSFHLRKASVHWSDSAVYFCAVSAGGYKVVFGSGTRLLVSP
Vbeta: NTKITQSPRYLILGRANKSLECEQHLGHNAMYWYKQSAEKPPELMFLYNLKQLIRNETVPSRFIPECPDSSKLLLHISAVDPEDSAVYFCASSPGGAEQFFGPGTRLTVL
B3: TCRCD8-mPL#11 (TCR, V domains shown)
Valpha: GDSVTQTEGPVTVSESESLIINCTYSATSIAYPNLFWYVRYPGEGLQLLLKVITAGQKGSSRGFEATYNKETTSFHLQKASVQESDSAVYYCALGLGYKLTFGTGTSLLVDP
Vbeta: B1 Vbeta with P95G
B4: TCRCD8-mPL#12 (TCR, V domains shown)
Valpha: GDQVEQSPSALSLHEGTGSALRCNFTTTMRAVQWFQQNSRGSLINLFYLASGTKENGRLKSTFNSKESYSTLHIRDAQLEDSGTYFCAAVNTNTGKLTFGDGTVLTVKP
Vbeta: SVLLYQKPNRDICQSGTSLKIQCVADSQVVSMFWYQQFQEQSLMLMATANEGSEATYESGFTKDKFPISRPNLTFSTLTVNNARPGDSSIYFCSSRTPNTGQLYFGEGSKLTVL
B5: TCRCD8-mPL#14 (TCR, V domains shown)
Valpha: B2 Valpha with R42H, K64E, A95S
Vbeta: B2 Vbeta with P94Q, A97T, Q99V, P103K, L110V
B6: TCRCD8-mPL#17 (TCR, V domains shown)
Valpha: QQQVRQSPQSLTVWEGETAILNCSYEDSTFNYFPWYQQFPGEGPALLISIRSVSDKKEDGRFTIFFNKREKKLSLHITDSQPGDSATYFCAPNNRIFFGDGTQLVVKP
Vbeta: EAAVTQSPRNKVAVTGGKVTLSCNQTNNHNNMYWYRQDTGHGLRLIHYSYGAGSTEKGDIPDGYKASRPSQENFSLILELATPSQTSVYFCASLGYNYAEQFFGPGTRLTVL
B7: TCRCD8-mPL#19 (TCR, V domains shown)
Valpha: GDSVIQMQGQVTLSENDFLFINCTYSTTGYPTLFWYVQYSGEGPQLLLQVTTANNKGSSRGFEATYDKGTTSFHLQKTSVQEIDSAVYYCAMSDASGSWQLIFGSGTQLTVMP
Vbeta: EAAVTQSPRSKVAVTGGKVTLSCHQTNNHDYMYWYRQDTGHGLRLIHYSYVADSTEKGDIPDGYKASRPSQENFSLILELASLSQTAVYFCASSPDRPSYNSPLYFAAGTRLTVT
B8: TCRCD8-mPL#20 (TCR, V domains shown)
Valpha: GDSVTQKEGLVTLTEGLPVMLNCTYQTIYSNAFLFWYVHYLNESPRLLLKSSTDNKRTEHQGFHATLHKSSSSFHLQKSSAQLSDSALYYCALNNVGDNSKLIWGLGTSLVVNP
Vbeta: NTKITQSPRYLILGRANKSLECEQHLGHNAMYWYKQSAEKPPELMFLYNLKQLIRNETVPSRFIPECPDSSKLLLHISAVDPEDSAVYFCASSQYGGANTEVFFGKGTRLTVV
B9: TCRCD8-mPL#22 (TCR, V domains shown)
Valpha: GQQVQQSPASLVLQEGENAELQCNFSSTATRLQWFYQHPGGRLVSLFYNPSGTKHTGRLTSTTVTNERRSSLHISSSQTTDSGTYFCAAASNTNKVVFGTGTRLQVLP
Vbeta: GALVYQYPRRTICKSGTSMRMECQAVGFQATSVAWYRQSPQKTFELIALSTVNSAIKYEQNFTQEKFPISHPNLSFSSMTVLNAYLEDRGLYLCGVDRANYAEQFFGPGTRLTVL
B10: TCRCD4-TPT#67 (TCR, V domains shown)
Valpha: QKEVEQDPGPLSVPEGAIVSLNCTYSNSAFQYFMWYRQYSRKGPELLMYTYSSGNKEDGRFTAQVDKSSKYISLFIRDSQPSDSATYLCALYTGGFKTIFGAGTRLFVKA
Vbeta: KAGVTQTPRYLIKTRGQQVTLSCSPISGHRSVSWYQQTPGQGLQFLFEYFSETQRNKGNFPGRFSGRQFSNSRSEMNVSTLELGDSALYLCASSFMGTEQYFGPGTRLTVT
B11: TCRCD8-NY#5 (TCR, V domains shown)
Valpha: ILNVEQSPQSLHVQEGDSTNFTCSFPSSNFYALHWYRWETAKSPEALFVMTLNGDEKKKGRISATLNTKEGYSYLYIKGSQPEDSATYLCASTSYSSASKIIFGSGTRLSIRP
Vbeta: GAGVSQSPRYKVTKRGQDVALRCDPISGHVSLYWYRQALGQGPEFLTYFNYEAQQDKSGLPNDRFSAERPEGSISTLTIQRTEQRDSAMYRCASSHSSGGAGELFFGEGSRLTVL
B12: TCRCD8-NY#6 (TCR, V domains shown)
Valpha: SQQGEEDPQALSIQEGENATMNCSYKTSINNLQWYRQNSGRGLVHLILIRSNEREKHSGRLRVTLDTSKKSSSLLITASRAADTASYFCATDEYGNKLVFGAGTILRVKS
Vbeta: DAGVIQSPRHEVTEMGQEVTLRCKPISGHNSLFWYRQTMMRGLELLIYFNNNVPIDDSGMPEDRFSAKMPNASFSTLKIQPSEPRDSAVYFCASSYPGFNEQFFGPGTRLTVL
B13: TCRCD8-NY#8 (TCR, V domains shown)
Valpha: AQSVTQLDSQVPVFEEAPVELRCNYSSSVSVYLFWYVQYPNQGLQLLLKYLSGSTLVKGINGFEAEFNKSQTSFHLRKPSVHISDTAEYFCAVSDQGTGGFKTIFGAGTRLFVKA
Vbeta: DVKVTQSSRYLVKRTGEKVFLECVQDMDHENMFWYRQDPGLGLRLIYFSYDVKMKEKGDIPEGYSVSREKKERFSLILESASTNQTSMYLCASRGTVTSSLMNTEAFFGQGTRLTVV
B14: TCRCD8-NY#15 (TCR, V domains shown)
Valpha: QKEVEQNSGPLSVPEGAIASLNCTYSDRGSQSFFWYRQYSGKSPELIMSIYSNGDKEDGRFTAQLNKASQYVSLLIRDSQPSDSATYLCAVPYYWSSGGSNYKLTFGKGTLLTVNP
Vbeta: DTEVTQTPKHLVMGMTNKKSLKCEQHMGHRAMYWYKQKAKKPPELMFVYSYEKLSINESVPSRFSPECPNSSLLNLHLHALQPEDSALYLCASSQSGLEETQYFGPGTRLLVL

Molecular target: T1, PLAC1 peptide on HLA-A*02:01
Assay: cytokine release

Binding result, recognises:
B1, B2, B3, B4, B5, B6, B7, B8, B9

Molecular target: T2, TPTE peptide on HLA-DRB1*15:01
Assay: cytokine release

Binding result, recognises:
B10

Molecular target: T3, PLAC1 peptide on HLA-A*02:01
Assay: cytokine release

Binding result, recognises:
B1, B2, B3, B4, B5, B6, B7, B8, B9

Molecular target: T4, PLAC1 peptide on HLA-A*02:01
Assay: cytokine release

Binding result, recognises:
B1, B2, B3, B4, B5, B6, B7, B8, B9

Molecular target: T5, NY-ESO-1 peptide on HLA-B*35:08
Assay: cytokine release

Binding result, recognises:
B11, B12, B13, B14
